Donor fluorescence lifetime and response data for 2 variants are collected here from PMC11335197.

B1: AT1R wildtype C-terminally fused to YPet [not stated] / AT1R wildtype coupled to mTurquoise2 [not stated] (parent)
chain 1: MILNSSTEDGIKRIQDDCPKAGRHNYIFVMIPTLYSIIFVVGIFGNSLVVIVIYFYMKLKTVASVFLLNLALADLCFLLTLPLWAVYTAMEYRWPFGNYLCKIASASVSFNLYASVFLLTCLSIDRYLAIVHPMKSRLRRTMLVAKVTCIIIWLLAGLASLPAIIHRNVFFIENTNITVCAFHYESQNSTLPIGLGLTKNILGFLFPFLIILTSYTLIWKALKKAYEIQKNKPRNDDIFKIIMAIVLFFFFSWIPHQIFTFLDVLIQLGIIRDCRIADIVDTAMPITICIAYFNNCLNPLFYGFLGKKFKRYFLQLLKYIPPKAKSHSNLSTKMSTLSYRPSDNVSSSTKKPAPCFEVE
chain 2: B1 chain 1

Variants of B1 are the subject of assay [1]. In words: FLIM (FRET) in living HEK293 cells. Conditions: with AT1R wildtype coupled to mTurquoise2, 2-exponential fitting, acceptor AT1R-YPet, read off a plot.
Assay [2] covers variants of B1. In words: intensity-based FRET microscopy in living HEK293 cells. To be noted: with AT1R wildtype coupled to mTurquoise2; donor AT1R-mTurquoise2 (wildtype), acceptor AT1R-YPet; read off a plot.

chain 1 S189A I193A L197A I201A L202A L205A F206A: the donor fluorescence lifetime in assay [1] came out at 3.5 ns. In addition, the response in assay [2] stood at 35%.
chain 1 Y54A F55A F96A Y99A L100A: the donor fluorescence lifetime in assay [1] is 3 ns. In assay [2], the response was found to be 67%.
